Data published in PMC11381347.

Target: N-terminal SmBiT-tagged SETD1A FLOS domain fragment (Sm-FO3)
Assay: split-NanoLuciferase-complementation assay with non-tagged competitor
Settings: Sm-FO3 + N200-Lg with non-tagged competitor construct; parent: est. 3.6; read off a plot

response: 7.6 RLU, x10^5
Substance: non-tagged BOD1L Shg1 fragment N200 (competitor) (from UniProt Q8NFC6) W104A
